Data published in patent publication US20090203610A1, “METHODS OF TREATING OBESITY OR DIABETES USING NT-4/5” (RINAT NEUROSCIENCE CORPORATION, priority 2004, published 2009).

How the values were obtained:
Type in all cases: in vivo
db/db mice = experiment: Dose response of NT-4/5 on food intake of db/db mice (Example 2)
Procedure: Db/db mice maintained as described in Example 1 were divided into five groups (groups 1-5). Group 1 (7 mice) were administered with vehicle (PBS). Group 2 (7 mice), group 3 (8 mice), group 4 (8 mice), group 5 (8 mice) were each administered with NT-4/5 at the doses of 2 mg/kg, 5 mg/kg, 10 mg/kg, and 20 mg/kg, respectively. Both the vehicle and NT-4/5 were administered to each group of the mice subcutaneously once daily for five days. One day before beginning the treatment (T0), blood samples were collected from the mice as described previously for the determination of baseline levels of serum biomarkers (glucose, triglyceride, and cholesterol). Similarly, at day 6 (T6), blood samples were collected for the determination of serum biomarker levels. The blood samples were treated in the same manner as described in Example 1.
[…] Individual body weights were also measured daily from 6 days before the treatment (T-5) to day 7 (T7).

DIO mice [1] = experiment: Glucose, triglyceride and oral glucose tolerance in DIO mice (Example 5); conditions: 2 and 10 mg/kg
Procedure: Test animals: Mice with diet induced obesity (DIO) from Jackson Laboratory were used in this study. El-Haschimi, J. Clin. Invest. 105:1827-1832 (2000); Steppan, Nature 409:307-312 (2001). 23 male C57BL/6J mice were weaned at 4 weeks of age. Immediately after weaning they were put on about 58% high fat diet ([…], Research Diet) through out the study. The DIO mice at 13 weeks of age weighing in the range of 28-40 g were used in this study. Older mice at 22-24 weeks of age were also used.
Administration of NT-4/5: NT-4/5 used in this study was obtained from Genentech. The mice were divided into 3 groups of equivalent body weight and baseline blood glucose distribution (7-8 mice per group). Each group received from day 1 to day 5, from day 8 to day 12, from day 15 to 16 a daily subcutaneous dose of either vehicle, 2 mg/kg or 10 mg/kg of NT-4/5, respectively. Five days prior to the treatment started (day −5), a baseline blood samples were collected for measuring glucose and triglyceride. Subsequent to the treatment started (day 1), blood glucose and triglyceride were measured once a week. Body weight, food intake were monitored 5 days per week through out the entire study. From days 57-59, the DIO mice received a daily injection of NT-4/5 at 2 or 10 mg/kg respectively. They were fasted overnight (for 16 hours) before fasting glucose levels were measured and the oral glucose tolerance test was conducted with a load of 2 grams of glucose/kg of body weight.

DIO mice [2] = experiment: NT-4/5 versus BDNF on body weight and food intake of DIO mice (Example 10)
Text: Test animals: Mice with diet induced obesity (DIO) were used in this study. 22 male C57BL/6J mice were weaned at 4 weeks of age. Immediately after weaning they were put on 58% high fat diet (D12331i, Research Diet) through out the study. The DIO mice at 13 weeks of age weighing in the range of 28-40 g were used in this study.
Administration of NT-4/5 and BDNF: NT-4/5 was produced was produced as described in U.S. Pat. No. 6,184,360. The recombinant human BDNF was obtained from PeproTech Inc. (Rocky Hill, N.J.).
The mice were divided into 3 groups of equivalent body weight distribution (7-8 mice per group). Each group received 2 weekly intravenous doses of either vehicle, 2 mg/kg of NT-4/5 or 2 mg/kg of BDNF, respectively. Body weight and food intake were taken the day before treatment started (day 0) and followed subsequently on a daily basis.

[3] = DIO mice 12-16 weeks of age, not diabetic
[4] = DIO mice 22-24 weeks of age, overt diabetes
[5] = weekly intravenous injection, 2 mg/kg

B1: NT-4/5: mature human neurotrophin-4/5 (SEQ ID NO:1), obtained from Genentech or produced in E. coli (protein, listed as Homo sapiens)
chain: GVSETAPASRRGELAVCDAVSGWVTDRRTAVDLRGREVEVLGEVPAAGGSPLRQYFFETRCKADNAEEGGPGAGGGGCRGVDRRHWVSECKAKQSYVRALTADAQGRVGWRWIRIDTACVCTLLSRTGRA
- food intake as compared to vehicle (db/db mice; 2, 5, 10 and 20 mg/kg): significantly decreased food intake
- food intake (db/db mice; Day 0, 2 mg/kg s.c. daily): 7.79 g
- food intake (db/db mice; Day 0, 5 mg/kg s.c. daily): 7.26 g
- food intake (db/db mice; Day 0, 10 mg/kg s.c. daily): 7.48 g
- food intake (db/db mice; Day 0, 20 mg/kg s.c. daily): 7.46 g
- food intake (db/db mice; Day 1, 2 mg/kg s.c. daily): 5.20 g
- food intake (db/db mice; Day 1, 5 mg/kg s.c. daily): 4.55 g
- food intake (db/db mice; Day 1, 10 mg/kg s.c. daily): 4.13 g
- food intake (db/db mice; Day 1, 20 mg/kg s.c. daily): 4.11 g
- food intake (db/db mice; Day 2, 2 mg/kg s.c. daily): 5.87 g
- food intake (db/db mice; Day 2, 5 mg/kg s.c. daily): 4.86 g
- food intake (db/db mice; Day 2, 10 mg/kg s.c. daily): 5.18 g
- food intake (db/db mice; Day 2, 20 mg/kg s.c. daily): 4.66 g
- food intake (db/db mice; Day 3, 2 mg/kg s.c. daily): 3.89 g
- food intake (db/db mice; Day 3, 5 mg/kg s.c. daily): 3.99 g
- food intake (db/db mice; Day 3, 10 mg/kg s.c. daily): 3.85 g
- food intake (db/db mice; Day 3, 20 mg/kg s.c. daily): 3.39 g
- food intake (db/db mice; Day 4, 2 mg/kg s.c. daily): 4.79 g
- food intake (db/db mice; Day 4, 5 mg/kg s.c. daily): 3.69 g
- food intake (db/db mice; Day 4, 10 mg/kg s.c. daily): 4.00 g
- food intake (db/db mice; Day 4, 20 mg/kg s.c. daily): 3.40 g
- food intake (db/db mice; Day 5, 2 mg/kg s.c. daily): 4.19 g
- food intake (db/db mice; Day 5, 5 mg/kg s.c. daily): 3.79 g
- food intake (db/db mice; Day 5, 10 mg/kg s.c. daily): 3.60 g
- food intake (db/db mice; Day 5, 20 mg/kg s.c. daily): 3.06 g
- food intake (db/db mice; Day 6, 2 mg/kg s.c. daily): 3.99 g
- food intake (db/db mice; Day 6, 5 mg/kg s.c. daily): 3.00 g
- food intake (db/db mice; Day 6, 10 mg/kg s.c. daily): 2.56 g
- food intake (db/db mice; Day 6, 20 mg/kg s.c. daily): 1.71 g
- food intake (db/db mice; Day 7, 2 mg/kg s.c. daily): 4.13 g
- food intake (db/db mice; Day 7, 5 mg/kg s.c. daily): 3.48 g
- food intake (db/db mice; Day 7, 10 mg/kg s.c. daily): 3.21 g
- food intake (db/db mice; Day 7, 20 mg/kg s.c. daily): 2.03 g
- non-fasting glucose levels (DIO mice [1]; [3]): did not affect
- non-fasting triglyceride levels (DIO mice [1]; [3]): did not affect
- fasting glucose level (DIO mice [1]; [4]): significantly reduced fasting glucose level
- glucose tolerance (DIO mice [1]; [4]): improved glucose tolerance
- body weight on day 2 (DIO mice [2]; 2 mg/kg i.v.): reduced body weight significantly
- food intake on day 2 (DIO mice [2]; 2 mg/kg i.v.): reduced food intake significantly
- body weight (DIO mice [2]; [5]): reduced the body weight more effectively than that of BDNF
- food intake (DIO mice [2]; [5]): reduced the food intake more effectively than that of BDNF
